Results published in article PMC5014583 (Structure (London, England : 1993), 2016).
Values joined by “and” are separate entries in the source; they are usually repeats but may differ in a detail not shown here. Equal values may be shown once.

How the values were obtained:
[1] = target: T1, Full-length human calmodulin (CaM) (human, UniProt P0DP23 1-149); assay: ITC
[2] = target: T1, Full-length human calmodulin (CaM); assay: NMR titration

Kd [1]: 153 nM and 137 nM
dH [1]: -16.6 kcal/mol
Kd [2]: 36000 nM
Binder: SPANSFHFKEAWKHAIQKAKHMPDPWA [eEF-2KCBD, calmodulin-binding segment of human eEF-2K (residues 74-100)]
